This note sets out measurements from paper PMC10439915, “Development of an interfering peptide M1-20 with potent anti-cancer effects by targeting FOXM1” (Cell Death & Disease, 2023).

The subject of one data set is MDA-MB-231 cells. The experiment in a line: CCK-8 cell viability. Type of data set: cell-based, human. As to conditions: 0, 10, 20, 40, 80, 160 µM, 36 h, n = 3. How it is done:
(§1) Fig. 2 The screening of the FOXM1-interacting peptide M1-20. A The diagram of peptide array (P1-P9) in which peptides (20-mer) covering FOXM1_689-748 with a shifting window of five residues were conjugated to the cell-penetrating peptide TAT and produced by solid-phase peptide synthesis. The P1-P9 peptides were biotin-labeled respectively and added in MDA-MB-231 cell lysates (500 μg) which were incubated with Streptavidin Agarose Resin to pull down biotin-peptide/protein complexes. Biotin and FOXM1 proteins in samples were detected by Western Blotting with certain antibodies. 10% of cell lysates (50 μg) were used as input controls. […] The absorbance at 450 nm and the relative cell viability in each well was calculated. […] GST-tag and Biotin-tag were detected by Western Blotting with certain antibodies. […] E The curve represented the quantification of binding affinity between GFP-labeled FOXM1_1-138 and P5 or P5mut by Microscale Thermophoresis (MST, Monolith NT.115, NanoTemper). Data points indicated the fraction of FOXM1_1-138-bound peptide (ΔNormal/Amplitude) at different concentrations, and curves indicated the calculated fits. […] F The biotin signals indicated the peptide stability of P5 and M1-20 in HEK293T cell lysates analyzed by Western Blotting. The levels of peptide were quantified by Image J software and graphed with GraphPad Prism 9 (n = 3). […]

The target in data set [1] is T1, FOXM1_1-138 (Homo sapiens, UniProt Q08050).
T1 construct: The cDNA of FOXM1(1-138aa) was PCR amplified from pCMV-FOXM1 plasmid; EGFP (C); His (pET-32a vector; Ni-Sepharose purification); made in house; host or cells: E. coli Rosetta/DE3
T1 sequence (Q08050 1-138 isoform Q08050-2): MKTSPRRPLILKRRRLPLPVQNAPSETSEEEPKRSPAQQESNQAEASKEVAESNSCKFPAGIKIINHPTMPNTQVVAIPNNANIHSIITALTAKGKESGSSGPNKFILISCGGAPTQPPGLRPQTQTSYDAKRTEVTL
The experiment in a line: Biotin-peptide pull-down of recombinant FOXM1_1-138. Conditions: biotin-labeled peptide (10 μg), recombinant protein (50 μg), Streptavidin Agarose Resin. Type of data set: binding. How it is done: as §1

For the next data set, the target named is T2, endogenous FOXM1 (Homo sapiens, UniProt Q08050).
T2 construct: endogenous in cells; host or cells: MDA-MB-231 cell lysates
T2 sequence (Q08050 1-763): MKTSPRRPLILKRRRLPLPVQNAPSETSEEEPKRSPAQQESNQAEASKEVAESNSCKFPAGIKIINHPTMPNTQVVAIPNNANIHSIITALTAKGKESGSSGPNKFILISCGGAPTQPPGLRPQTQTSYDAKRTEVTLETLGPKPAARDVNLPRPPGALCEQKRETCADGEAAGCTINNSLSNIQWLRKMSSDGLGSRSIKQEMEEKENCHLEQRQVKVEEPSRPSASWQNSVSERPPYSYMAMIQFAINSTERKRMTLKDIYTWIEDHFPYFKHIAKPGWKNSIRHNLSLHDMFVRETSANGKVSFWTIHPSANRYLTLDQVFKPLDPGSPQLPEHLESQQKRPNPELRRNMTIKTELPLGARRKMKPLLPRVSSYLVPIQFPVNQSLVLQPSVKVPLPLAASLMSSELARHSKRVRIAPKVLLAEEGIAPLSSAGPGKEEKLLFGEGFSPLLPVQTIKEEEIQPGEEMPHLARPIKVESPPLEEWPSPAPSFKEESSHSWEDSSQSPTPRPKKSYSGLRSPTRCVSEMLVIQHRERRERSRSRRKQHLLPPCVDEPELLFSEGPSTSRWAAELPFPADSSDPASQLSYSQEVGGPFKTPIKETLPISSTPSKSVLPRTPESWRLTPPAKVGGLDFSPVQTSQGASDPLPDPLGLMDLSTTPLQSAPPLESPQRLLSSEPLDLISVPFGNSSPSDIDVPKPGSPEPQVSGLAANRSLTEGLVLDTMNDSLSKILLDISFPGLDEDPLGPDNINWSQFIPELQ
The experiment in a line: Biotin-peptide pull-down of endogenous FOXM1 from MDA-MB-231 cell lysates. In kind it is binding. As to conditions: biotin-labeled peptide, MDA-MB-231 cell lysates (500 μg), Streptavidin Agarose Resin, Western Blotting. As to the method: as §1
In general terms: Immunoblotting shows a protein as a band on a membrane.

The target in data set [2] is T1, FOXM1_1-138. The experiment in a line: Microscale thermophoresis binding of peptide to GFP-labeled FOXM1_1-138. Conditions: MST, Monolith NT.115, peptide 0.030 to 1000 μM in PBS with 0.05% Tween-20, 25 °C, mean of three independent measurements. How it is done: Measurements were performed by Monolith NT.115 instrument (NanoTemper). The data were analyzed by MO. Affinity Analysis v2.3 NT software (NanoTemper) to determine interaction parameters. Details were described in the supplemental materials and methods.
as §1, with “The P1-P9 peptides were biotin-labeled respectively and added in MDA-MB-231 cell lysates (500 μg) which were incubated with Streptavidin Agarose Resin to pull down biotin-peptide/protein complexes.” left out, “antibodies.” for “antibodies. 10% of cell lysates (50 μg) were used as input controls.”

For data set [3], the target named is T3, GFP-labeled FOXM1_(1-138) (human, UniProt Q08050-3 1-138).
T3 construct: The fluorescent partner of the MST; Details are in the supplemental materials and methods
T3 sequence (looked up): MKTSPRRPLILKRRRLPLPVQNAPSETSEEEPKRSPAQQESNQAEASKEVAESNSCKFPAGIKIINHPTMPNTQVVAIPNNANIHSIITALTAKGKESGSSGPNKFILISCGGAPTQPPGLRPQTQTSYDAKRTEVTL
The experiment in a line: MST; GFP-labeled FOXM1(1-138) with peptide at different concentrations; Monolith NT.115 (NanoTemper), MO.Affinity Analysis v2.3; three independent measurements. As to conditions: both partners purified.

In a further data set the target is T4, His-FOXM1 (UniProt Q08050-2 1-748).
T4 sequence: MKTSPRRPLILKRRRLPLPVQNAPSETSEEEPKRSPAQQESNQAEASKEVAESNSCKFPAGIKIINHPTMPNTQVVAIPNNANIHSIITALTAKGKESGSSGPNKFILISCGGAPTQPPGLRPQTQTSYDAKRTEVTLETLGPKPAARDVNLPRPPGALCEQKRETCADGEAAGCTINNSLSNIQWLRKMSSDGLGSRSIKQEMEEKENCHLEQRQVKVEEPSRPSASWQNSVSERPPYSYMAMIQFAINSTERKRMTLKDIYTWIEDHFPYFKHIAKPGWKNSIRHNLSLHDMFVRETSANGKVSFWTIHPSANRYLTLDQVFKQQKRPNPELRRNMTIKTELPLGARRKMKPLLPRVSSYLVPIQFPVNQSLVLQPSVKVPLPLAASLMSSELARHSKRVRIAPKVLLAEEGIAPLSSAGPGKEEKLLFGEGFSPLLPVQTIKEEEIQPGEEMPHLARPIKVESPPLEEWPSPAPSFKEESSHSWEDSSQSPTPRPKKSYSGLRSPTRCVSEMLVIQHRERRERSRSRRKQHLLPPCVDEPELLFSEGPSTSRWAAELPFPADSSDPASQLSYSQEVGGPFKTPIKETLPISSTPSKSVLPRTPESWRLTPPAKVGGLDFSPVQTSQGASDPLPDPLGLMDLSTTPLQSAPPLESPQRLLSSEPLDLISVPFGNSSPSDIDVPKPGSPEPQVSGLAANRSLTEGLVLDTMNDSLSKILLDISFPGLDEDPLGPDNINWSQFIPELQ
The experiment in a line: EMSA; plus M1-20 peptide (5 and 10 uM in legend; 0.5, 1 and 2 uM in Suppl. Methods); DNA binding not disrupted; 20 mM Tris-Cl pH 7.6, 50 mM KCl, 10% glycerol, 0.5 mM EDTA, 0.2 mM DTT, 30 min on ice; 4% native PAGE in 0.5x TBE. As to conditions: protein: recombinant; tags: His; label: 5'-FAM on forward strand (hot); blunt.

Non-standard residues stand in square brackets, D forms with d. No end group written: not given here.

For the molecule “P5: the sequence 709-728aa of FOXM1, 20-mer conjugated with TAT cell-penetrating sequence; natural parent peptide of M1-20”, the “inhibition of MDA-MB-231 cells in the P1-P9 library screen” value in the data set with MDA-MB-231 cells is reported as “significantly inhibited MDA-MB-231 breast cancer cells in a dose-dependent manner”. The “binding to recombinant FOXM1_1-138 (pull-down)” value with FOXM1_1-138 [1] is on record as “bind to recombinant GST-FOXM1_1-138 protein”. Besides, the “interaction with endogenous FOXM1 (pull-down)” value in the data set with endogenous FOXM1 is given as “interacted with endogenous FOXM1 with variable affinities”. For “P5mut: P5 with three residues mutated (L721A, I723A, S724A) (LDTMNDSLSKILADAAFPGL; also: conjugated to TAT cell-penetrating sequence (as parent P5))”, in the data set with FOXM1_1-138 [2], the “KD, binding affinity to FOXM1_1-138” value is “unmeasurable”.

B1: M1-20mut (peptide)
chain: [dL]G[dP][dF][dA][dA][dD][dA][dL][dI][dK][dS][dL][dS][dD][dN][dM][dT][dD][dL]
In data set [3], B1 had a Kd of 386 µM.

B2: P5 (peptide)
chain: LDTMNDSLSKILLDISFPGL
modifications: also: conjugated to TAT cell-penetrating sequence
In data set [3], B2 registered a Kd of 43.1 µM.

B3: FAM-labeled FOXM1 EMSA probe (dsDNA)
DNA 1: TTTGTTTATTTGTTTGTTTATTTG
DNA 2: CAAATAAACAAACAAATAAACAAA
Consider B3, for which the binding result in the data set with His-FOXM1 is “binds”.

B4: M1-20 (peptide)
chain: [dL]G[dP][dF][dS][dI][dD][dL][dL][dI][dK][dS][dL][dS][dD][dN][dM][dT][dD][dL]
Regarding B4, the affinity in data set [3], expressed as Kd, was 5.66 µM.

In general, Kd refers to the free concentration of one partner at which half of the binding sites on the other are occupied at equilibrium, for simple one-to-one binding. Read a high Kd as weaker binding.
